Measured values published in the supplement of paper PMC10567573.

B1: TPD52L2 (parent)
chain: EAEEEELRAELTKVEEEIVTLRQV
B2: ZBTB22 (parent)
chain: FSSSSQEAFAASAVGSGERRGGGP

Variants of: B1
Experiment: protein stability index of a GFP-peptide fusion (GPS, HEK-293T) (PSI 1-6); higher = more stable
Conditions: c terminus: a fixed tail appended
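Note: lentivirally expressed fusions sorted by FACS into six bins by GFP to DsRed ratio, PSI derived from sequencing read proportions per bin multiplied by bin number.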

| Variant | protein stability index |
| --- | --- |
| I18F | 4.52 |
| I18T | 5.19 |
| I18S | 5.45 |
| I18L | 3.92 |
| I18P | 5.69 |
| I18D | 5.66 |
| I18M | 5.11 |
| I18C | 4.55 |
| I18A | 5.93 |
| I18W | 5.09 |
| I18Q | 5.41 |
| I18E | 5.86 |
| I18N | 4.93 |
| I18Y | 5.12 |
| I18G | 5.67 |
| I18K | 5.19 |
| I18R | 5.71 |
| I18H | 5.24 |
| I18V | 5.35 |
| V14Q | 5.59 |
| V14Y | 5.05 |
| V14P | 5.75 |
| V14K | 5.72 |
| V14I | 3.57 |
| V14T | 4.37 |
| V14W | 4.05 |

| Variant | protein stability index |
| --- | --- |
| V14R | 5.35 |
| V14F | 5.01 |
| V14H | 5.7 |
| V14L | 3.82 |
| V14G | 3.76 |
| V14M | 4.43 |
| V14N | 5.33 |
| V14S | 4.42 |
| R22T | 4.18 |
| R22S | 4.37 |
| R22H | 3.96 |
| R22A | 4.54 |
| R22Q | 3.77 |
| R22P | 4.85 |
| R22K | 3.8 |
| R22Y | 2.54 |
| R22G | 3.79 |
| R22D | 3.54 |
| R22I | 2.44 |
| R22M | 3.17 |
| R22C | 3.66 |
| R22N | 3.9 |
| R22E | 4.25 |
| R22V | 3.4 |
| R22L | 3.06 |
| R22W | 2.92 |

| Variant | protein stability index |
| --- | --- |
| R22F | 2.33 |
| E17R | 4.62 |
| E17F | 2.87 |
| E17N | 4.54 |
| E17T | 4.63 |
| E17Q | 3.86 |
| E17Y | 2.35 |
| E17H | 3.44 |
| E17V | 4.05 |
| E17P | 4.66 |
| E17G | 5.32 |
| E17M | 4.02 |
| E17S | 4.29 |
| E17L | 4.24 |
| E17A | 4.14 |
| E17I | 3.46 |
| E17D | 5.55 |
| E17C | 4.63 |
| E17W | 2.28 |
| E17K | 4.67 |
| V19W | 2.54 |
| V19E | 4.21 |
| V19C | 3.78 |
| V19Y | 3.71 |
| V19I | 2.96 |
| V19H | 3.9 |

| Variant | protein stability index |
| --- | --- |
| V19T | 4.44 |
| V19G | 4.79 |
| V19M | 3.52 |
| V19Q | 3.04 |
| V19S | 3.98 |
| V19N | 4.51 |
| V19D | 4.82 |
| V19L | 3.69 |
| V19K | 3.89 |
| V19F | 3.27 |
| V19P | 5.45 |
| V19R | 3.88 |
| V19A | 3.96 |
| V24S | 4.52 |
| V24Y | 3.83 |
| V24M | 3.42 |
| V24K | 4.87 |
| V24G | 3.41 |
| V24H | 3.92 |
| V24L | 3.78 |
| V24E | 4.35 |
| V24P | 4.65 |
| V24C | 3.63 |
| V24T | 4.39 |
| V24D | 5.2 |
| V24I | 4.13 |

| Variant | protein stability index |
| --- | --- |
| V24W | 3.89 |
| V24F | 3.25 |
| V24Q | 4.14 |
| V24N | 4.72 |
| V24A | 4.41 |
| V24R | 4.39 |
| L21M | 4.72 |
| L21P | 5.57 |
| L21A | 4.96 |
| L21N | 5.73 |
| L21Y | 3.34 |
| L21V | 5.22 |
| L21H | 4.08 |
| L21T | 5.65 |
| L21G | 5.24 |
| L21K | 5.86 |
| L21I | 4.25 |
| L21R | 5.56 |
| L21F | 4.09 |
| L21W | 3.63 |
| L21D | 5.73 |
| L21E | 5.4 |
| L21S | 5.68 |
| L21C | 4.72 |
| L21Q | 5.13 |
| T20K | 3.44 |

| Variant | protein stability index |
| --- | --- |
| T20D | 5.3 |
| T20M | 2.92 |
| T20A | 3.9 |
| T20C | 3.46 |
| T20I | 3.06 |
| T20H | 3.56 |
| T20L | 2.91 |
| T20S | 3.56 |
| T20W | 2.99 |
| T20Y | 2.77 |
| T20E | 3.84 |
| T20R | 3.3 |
| T20G | 3.86 |
| T20F | 2.85 |
| T20V | 3.92 |
| T20N | 3.34 |
| T20P | 4.98 |
| T20Q | 4.04 |
| E16W | 2.66 |
| E16H | 3.87 |
| E16A | 3.85 |
| E16R | 2.79 |
| E16I | 2.61 |
| E16M | 2.59 |
| E16N | 3.93 |
| E16G | 4.84 |

| Variant | protein stability index |
| --- | --- |
| E16S | 3.46 |
| E16Q | 3.52 |
| E16Y | 1.82 |
| E16K | 3.25 |
| E16C | 3.82 |
| E16P | 4.79 |
| E16V | 3.27 |
| E16T | 4.33 |
| E16L | 3.06 |
| E16D | 4.17 |
| E16F | 2.76 |
| E15S | 4.39 |
| E15N | 5.27 |
| E15V | 2.8 |
| E15A | 4.41 |
| E15M | 2.91 |
| E15W | 3.03 |
| E15G | 5.31 |
| E15C | 3.94 |
| E15Q | 4.9 |
| E15F | 3.61 |
| E15R | 4.72 |
| E15T | 4.63 |
| E15H | 5.12 |
| E15I | 1.81 |
| E15P | 5.04 |

| Variant | protein stability index |
| --- | --- |
| E15L | 1.83 |
| E15D | 5.55 |
| E15Y | 3.24 |
| E15K | 5.01 |
| Q23W | 4.35 |
| Q23R | 3.73 |
| Q23C | 3.9 |
| Q23E | 3.82 |
| Q23P | 4.58 |
| Q23K | 4.04 |
| Q23V | 3.11 |
| Q23G | 4.54 |
| Q23H | 3.6 |
| Q23Y | 5.02 |
| Q23F | 3.19 |
| Q23D | 4.43 |
| Q23M | 3.65 |
| Q23S | 3.61 |
| Q23L | 3.25 |
| Q23T | 4.06 |
| Q23I | 2.98 |
| Q23N | 4.21 |
| Q23A | 3.56 |

Variants of: B2
Experiment: as above
Conditions: c terminus: a fixed tail appended

| Variant | protein stability index |
| --- | --- |
| R19T | 3.78 |
| R19A | 3.43 |
| R19V | 3.46 |
| R19G | 3.82 |
| R19C | 3.07 |
| A8F | 2.55 |
| A8H | 3.86 |
| A8T | 3.46 |
| A8S | 4.18 |
| A8M | 2.17 |
| A8R | 3.96 |
| A8Y | 1.88 |
| A8D | 5.19 |
| E18T | 2.87 |
| E18L | 2.85 |
| E18D | 2.98 |
| E18F | 2.86 |
| E18M | 2.96 |
| E7S | 2.57 |
| E7T | 2.78 |
| E7R | 2.36 |
| E7Q | 3.67 |
| E7M | 2.37 |
| E7P | 3.25 |
| S5A | 2.71 |
| S5P | 4.56 |

| Variant | protein stability index |
| --- | --- |
| S5K | 3.91 |
| S5Y | 1.95 |
| S5I | 3.62 |
| S5M | 2.4 |
| S16D | 3.63 |
| S16T | 3.61 |
| S16Q | 2.96 |
| S16A | 3.29 |
| S16L | 2.75 |
| A11S | 3.88 |
| A11Y | 3.13 |
| A11H | 3.02 |
| A11K | 4.5 |
| G23F | 3.75 |
| G23Q | 3.26 |
| G23L | 2.94 |
| G23N | 3.4 |
| G23P | 3.54 |
| V14S | 3.25 |
| V14H | 3.86 |
| V14Y | 2.76 |
| V14P | 3.9 |
| V14G | 3.56 |
| V14L | 3.77 |
| G15M | 3.25 |
| G15H | 3.24 |

| Variant | protein stability index |
| --- | --- |
| G15K | 3.41 |
| G15S | 3.61 |
| A10C | 2.44 |
| A10R | 3.33 |
| A10I | 2.44 |
| A10K | 3.2 |
| A10N | 3.97 |
| A10W | 2.88 |
| R20W | 2.21 |
| R20Y | 3.3 |
| R20L | 3.78 |
| R20Q | 3.71 |
| R20F | 2.97 |
| R20C | 2.9 |
| F1Y | 3.48 |
| F1T | 5.39 |
| F1W | 5.09 |
| F1P | 5.33 |
| F1Q | 5.01 |
| A13Q | 3.28 |
| A13W | 3.02 |
| A13V | 3.87 |
| A13P | 3.43 |
| A13L | 3.13 |
| F9I | 4.83 |
| F9K | 5.2 |

| Variant | protein stability index |
| --- | --- |
| F9R | 4.35 |
| F9L | 4.92 |
| F9S | 5.01 |
| F9T | 5.26 |
| F9A | 5.51 |
| F9P | 4.98 |
| F9E | 5.92 |
| F9Q | 5.09 |
| P24R | 3.03 |
| P24G | 2.6 |
| P24H | 3.75 |
| P24L | 3.32 |
| P24M | 2.43 |
| P24C | 3.21 |
| P24W | 2.22 |
| P24A | 3.5 |
| S12L | 2.36 |
| S12V | 2.87 |
| S12T | 3.02 |
| S3N | 3.76 |
| S3E | 4.38 |
| S3Q | 4.07 |
| S3M | 4.2 |
| S3Y | 3.71 |
| G22T | 3.72 |
| G22E | 3.66 |

| Variant | protein stability index |
| --- | --- |
| G22N | 3.55 |
| G22H | 3.83 |
| G22M | 2.44 |
| Q6G | 4.22 |
| Q6F | 2.18 |
| Q6S | 2.49 |
| Q6L | 2.85 |
| Q6R | 3 |
| G21D | 4.06 |
| G21A | 3.64 |
| G21V | 2.84 |
| G21F | 3.22 |
| G21C | 3.48 |
| S2C | 2.62 |
| S2A | 2.29 |
| S2K | 4.86 |
| S2V | 2.29 |
| G17A | 3.02 |
| G17R | 3.23 |
| G17L | 3.12 |
| S4W | 1.68 |
| S4A | 3.14 |
| S4P | 4.25 |
| S4D | 3.98 |
| S4T | 3.29 |
